Assay results published in patent US20070098681A1.
Where “and” joins values, the source holds several entries; their conditions need not be identical. Equal values may be shown once.

How the values were obtained:
DR5-IgG (human) [1] = experiment: method not stated; against zinc-bound Apo-2L
DR5-IgG (human) [2] = experiment: phage bound and eluted from DR5-IgG coated well against blank well; phage grown at 37 C

Substance | fold decrease in DR5 affinity (DR5-IgG (human) [1]) [fold] | Enrichment (ratio (DR5-IgG well / blank well)) (DR5-IgG (human) [2])
Apo-2L after removal of the bound metal by dialysis against chelating agents (ligand) | 7 | 
wild-type Apo2L/TRAIL (residues 96-281) displayed on M13 phage (ligand) |  | 1.5 and 3.3
